± gives the standard deviation of the averaged measurements.
Assays:
[1] = test system: VchCAST RNA-guided transposition machinery (E. coli BL21(DE3) host, lacZ target); test: relative integration efficiency (T-LR orientation) vs wild-type transposon end (log2 (normalized fold change)); transposon end mutated: right end (5 bp flank + 75 bp right end); higher = more efficient transposition
Outline: (§1)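 Barcoded pools of 1549 left-end or 1849 right-end transposon variants were cloned into a pUC57 mini-transposon donor. Each pool was co-transformed with a T7-driven effector plasmid (CRISPR array, tniQ-cas8-cas7-cas6, tnsA-tnsB-tnsC) into E. coli BL21(DE3) and plated with 0.1 mM IPTG at 37°C for 18 h. Input plasmids and genomic integration junctions were PCR-amplified and Illumina-sequenced, with two biological output replicates and four wild-type barcodes as reference. Relative integration efficiency is output/input barcode abundance fold change, normalised to wild-type barcodes and log-transformed.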

[2] = test system: VchCAST RNA-guided transposition machinery (E. coli BL21(DE3) host, lacZ target); test: relative integration efficiency (T-RL orientation) vs wild-type transposon end (log2 (normalized fold change)); transposon end mutated: right end (5 bp flank + 75 bp right end); higher = more efficient transposition
Outline: as §1

| Sequence | relative integration efficiency (log2) [1] | relative integration efficiency (log2) [2] |
| --- | --- | --- |
| ACATTTGTTGATACAACCATAAAATGATAATTACTCTGATCATAGTCAGACCAACATTGCTACGACCCGTATTCGCACCGACACAACGCACCCATAAATTGATAATTATCAGTGGGTATTTAACTAT | 1.8 ± 0.1 | -1.4 ± 0.054 |
| ACATTTGTTGATACAACCATAAAATGATAATTACTCTGATCATAGTCAGACCAACATTGCTACGACCCGTATTCGCACCGACACACCCATAAATTGATAATTATCACACCCATAAATTGATATTGCC | 0.795 ± 0.3 | -2.59 ± 0.21 |
| ACATTTGTTGATACAACCATAAAATGATAATTACTCTGATCATAGTCAGACCAACATTGCTACGACCCGTATTCGCACCGACACACCCATAAATTGATAATTATCAGTGGGTATTTAACTATAACGC | 2.24 ± 0.21 | -1.05 ± 0.17 |
| ACATTTGTTGATACAACCATAAAATGATAATTACTCTGATCATAGTCAGACCACACCCATAAATTGATAATTATCACACCCATAAATTGATATTGCACATTGCTACGACCCGTATTCGCACCGACAC | -2.36 ± 0.32 | -4.6 ± 0.057 |
| ACATTTGTTGATACAACCATAAAATGATAATTACTCTGATCATAGTCAGACCACACCCATAAATTGATAATTATCAGTGGGTATTTAACTATAACGACATTGCTACGACCCGTATTCGCACCGACAC | 2.27 ± 0.15 | -0.22 ± 0.33 |
| ACATTTGTTGATACAACCATAAAATGATAATTACTCTGATCATAGTCAGCACCCATAAATTGATAATTATCACACCCATAAATTGATATTGCACCAACATTGCTACGACCCGTATTCGCACCGACAC | -0.456 ± 0.19 | -4.51 ± 0.36 |
| ACATTTGTTGATACAACCATAAAATGATAATTACTCTGATCATAGTCAGCACCCATAAATTGATAATTATCAGTGGGTATTTAACTATAACGACCAACATTGCTACGACCCGTATTCGCACCGACAC | 0.537 ± 0.24 | -2.61 ± 0.47 |
| ACATTTGTTGATACAACCATAAAATGATAATTACTCTGATCATCACCCATAAATTGATAATTATCACACCCATAAATTGATATTGCAGTCAGACCAACATTGCTACGACCCGTATTCGCACCGACAC | -2.15 ± 0.28 | -4.28 ± 0.15 |
| ACATTTGTTGATACAACCATAAAATGATAATTACTCTGATCATCACCCATAAATTGATAATTATCAGTGGGTATTTAACTATAACGAGTCAGACCAACATTGCTACGACCCGTATTCGCACCGACAC | -0.42 ± 0.11 | -3.53 ± 0.084 |
| ACATTTGTTGATACAACCATAAAATGATAATTACTCTGCACCCATAAATTGATAATTATCACACCCATAAATTGATATTGCATCATAGTCAGACCAACATTGCTACGACCCGTATTCGCACCGACAC | 0.55 ± 0.061 | -3.62 ± 0.15 |
| ACATTTGTTGATACAACCATAAAATGATAATTACTCTGCACCCATAAATTGATAATTATCAGTGGGTATTTAACTATAACGATCATAGTCAGACCAACATTGCTACGACCCGTATTCGCACCGACAC | 0.872 ± 0.43 | -2.05 ± 0.21 |
| ACATTTGTTGATACAACCATAAAATGATAATTACTGCCATAAATTGATAATTATCACACCCATAAATTGATATTGCCTCTGATCATAGTCAGACCAACATTGCTACGACCCGTATTCGCACCGACAC | -0.602 ± 0.32 | -0.109 ± 0.19 |
| ACATTTGTTGATACAACCATAAAATGATAATTACTGGGATAAATTGATAATTATCACACCCATAAATTGATATTGCCTCTGATCATAGTCAGACCAACATTGCTACGACCCGTATTCGCACCGACAC | -0.993 ± 0.59 | -0.454 ± 0.059 |
| ACATTTGTTGATACAACCATAAAATGATAATTAGAAACCATAATTGATAATTATCACACCCATAAATTGATATTGCCTCTGATCATAGTCAGACCAACATTGCTACGACCCGTATTCGCACCGACAC | -2.38 ± 0.52 | -3.59 ± 0.08 |
| ACATTTGTTGATACAACCATAAAATGATAATTAGAAACCATACGCTGAAATAATCACACCCATAAATTGATATTGCCTCTGATCATAGTCAGACCAACATTGCTACGACCCGTATTCGCACCGACAC | -1.54 ± 0.65 | -3.5 ± 0.081 |
